The target of assay [1] is soluble F glycoprotein (sF). Nature of the assay: SPR, Biacore 3000, mAb captured by anti-Fc on CM5, sF in solution.
Assay [2] deals with full-length wild-type NiV F glycoprotein (Nipah virus) (UniProt Q9IH63). Nature of the assay: cell-based or functional assay.
Assay [3] addresses full-length wild-type HeV F glycoprotein (Hendra virus) (UniProt O89342). Nature of the assay: cell-based or functional assay.

From patent US20160347827A1 come the findings set out here.

Chain of UniProt Q9IH63 (Q9IH63 27-546): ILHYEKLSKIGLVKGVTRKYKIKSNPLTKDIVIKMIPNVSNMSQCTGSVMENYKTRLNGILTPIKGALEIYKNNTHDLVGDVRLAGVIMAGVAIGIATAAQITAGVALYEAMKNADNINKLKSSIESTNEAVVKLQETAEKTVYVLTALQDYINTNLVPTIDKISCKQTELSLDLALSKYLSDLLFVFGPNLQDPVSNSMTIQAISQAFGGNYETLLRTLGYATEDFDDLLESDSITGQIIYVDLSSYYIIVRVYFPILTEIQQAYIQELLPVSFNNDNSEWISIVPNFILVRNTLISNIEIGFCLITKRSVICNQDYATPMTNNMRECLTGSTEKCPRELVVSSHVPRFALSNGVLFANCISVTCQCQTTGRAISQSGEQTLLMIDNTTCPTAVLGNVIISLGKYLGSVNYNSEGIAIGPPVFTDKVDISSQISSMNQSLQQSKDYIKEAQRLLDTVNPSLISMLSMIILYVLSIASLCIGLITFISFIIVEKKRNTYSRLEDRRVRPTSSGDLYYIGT
Chain of UniProt O89342 (O89342 27-546): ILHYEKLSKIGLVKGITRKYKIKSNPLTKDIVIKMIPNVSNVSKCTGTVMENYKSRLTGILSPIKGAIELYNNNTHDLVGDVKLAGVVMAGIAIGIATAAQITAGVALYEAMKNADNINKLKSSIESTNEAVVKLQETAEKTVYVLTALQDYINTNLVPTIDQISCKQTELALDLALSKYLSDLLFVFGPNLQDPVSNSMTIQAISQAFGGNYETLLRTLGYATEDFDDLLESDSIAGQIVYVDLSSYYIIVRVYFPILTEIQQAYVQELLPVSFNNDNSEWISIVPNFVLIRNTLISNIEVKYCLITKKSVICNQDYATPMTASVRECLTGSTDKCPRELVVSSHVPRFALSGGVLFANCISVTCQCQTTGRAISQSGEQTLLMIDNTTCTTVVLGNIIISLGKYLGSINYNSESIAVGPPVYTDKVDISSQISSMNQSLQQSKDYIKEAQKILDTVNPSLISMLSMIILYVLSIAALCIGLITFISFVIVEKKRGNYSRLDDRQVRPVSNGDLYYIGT

B1: murine 5B3 monoclonal antibody (antibody, V domains shown)
VH: EVQLVESGGGLVKPGGSLKLSCAASGFTFSSYDMSWVRQTPEKRLEWVAMISSGGSYSYYPDSVKGRFTISRDNAKNTLYLQMSSLRSEDTAMYYCARQGDYAWFAYWGQGTLVTVS
VL: DIQMTQSPASQSASLGESVTITCLASQTIGTWLAWYQQKPGKSPQLLIYAATSLADGVPSRFSGSGSGTKFSFKISSLQAEDFVSYYCQQFYSTPFTFGGGTKLEIKR
Broadly, the Kd is the equilibrium constant for the complex coming apart. Lower therefore signals a tighter complex. In assay [1], B1 gave a Ka of 3.7e+08 M⁻¹ and a Kd of 2.7 nM.

B2: humanized 5B3.1 IgG1 (antibody, V domains shown)
VH: EVQLVESGGGLVKPGGSLRLSCAASGFTFSSYSMSWVRQAPGKGLEWVAMISSGGSYSYYADSVKGRFTISRDNSKNTLYLQMNSLRAEDTAVYYCARQGDYAWFDIWGQGTLVTVS
VL: DIQMTQSPSSLSASVGDRVTITCLASQTIGTWLAWYQQKPGKAPKLLIYAATSLADGVPSRFSGSGSGTDFTLTISSLQPEDFATYYCQQFYSTPFTFGGGTKLEIKR
One may read the koff as the rate constant with which the complex falls apart. Lower therefore signals a long-lived complex. In general, kon refers to a measure of how fast the partners come together. Regarding B2, in assay [2], the virus neutralization titer, NiV 100 TCID50 (cpe fully inhibited, Vero cells) is above 100 µg/mL and the virus neutralization titer, NiV 200 TCID50 (cpe fully inhibited, Vero cells) was above 100 µg/mL. In assay [3], this molecule came in with a virus neutralization titer, HeV 100 TCID50 (cpe fully inhibited, Vero cells) above 100 µg/mL and a virus neutralization titer, HeV 200 TCID50 (cpe fully inhibited, Vero cells) above 100 µg/mL. In assay [1], this molecule displayed a Ka of 1.6e+07 M⁻¹, a Kd of 62 nM, a koff of 0.0017 s⁻¹ and an on-rate constant (kon) of 27000 M⁻¹ s⁻¹.

B3: humanized 5B3 IgG1 (antibody, V domains shown)
VH: EVQLVESGGGLVKPGGSLRLSCAASGFTFSSYDMSWVRQAPGKGLEWVAMISSGGSYSYYPDSVKGRFTISRDNSKNTLYLQMNSLRAEDTAVYYCARQGDYAWFAYWGQGTLVTVS
VL: DIQMTQSPSSLSASVGDRVTITCLASQTIGTWLAWYQQKPGKAPKLLIYAATSLADGVPSRFSGSGSGTDFTLTISSLQPEDFATYYCQQFYSTPFTFGGGTKLEIKR
For B3, in assay [2], the virus neutralization titer, NiV 100 TCID50 (cpe fully inhibited, Vero cells) was 1.56 µg/mL and the virus neutralization titer, NiV 200 TCID50 (cpe fully inhibited, Vero cells) worked out at 3.12 µg/mL. In assay [3], this molecule registered a virus neutralization titer, HeV 100 TCID50 (cpe fully inhibited, Vero cells) of 0.78 µg/mL and a virus neutralization titer, HeV 200 TCID50 (cpe fully inhibited, Vero cells) of 12.5 µg/mL. In addition, in assay [1], the Ka came to 7.5e+07 M⁻¹, the Kd turned out to be 13 nM, the koff was found to be 0.00033 s⁻¹ and the kon was found to be 25000 M⁻¹ s⁻¹.
